Molecular target: T1, human endothelial lipase (EL) (human, UniProt Q9Y5X9 21-500, limits assumed)
T1 construct: The assay used endogenous EL in human plasma and a bought recombinant EL standard (Origene Technologies); also called human EL
T1 sequence: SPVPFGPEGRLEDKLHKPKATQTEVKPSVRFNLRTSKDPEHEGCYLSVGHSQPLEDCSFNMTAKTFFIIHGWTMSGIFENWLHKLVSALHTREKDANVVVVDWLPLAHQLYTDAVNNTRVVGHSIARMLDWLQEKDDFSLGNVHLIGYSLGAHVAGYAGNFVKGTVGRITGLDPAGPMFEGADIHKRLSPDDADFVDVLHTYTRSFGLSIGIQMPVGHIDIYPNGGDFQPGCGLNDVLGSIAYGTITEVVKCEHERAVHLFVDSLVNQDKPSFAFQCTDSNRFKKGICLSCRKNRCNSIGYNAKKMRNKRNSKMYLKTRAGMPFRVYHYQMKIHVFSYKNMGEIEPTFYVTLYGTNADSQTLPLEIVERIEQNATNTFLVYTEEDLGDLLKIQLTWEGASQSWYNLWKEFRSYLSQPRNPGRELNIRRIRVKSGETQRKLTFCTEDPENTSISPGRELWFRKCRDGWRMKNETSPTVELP
Assay: MSD immunoassay of human plasma: plate coated with MEDI5884 captures EL, which is detected with a biotinylated EL detection antibody and streptavidin sulfo-TAG. Plasma came from subjects with stable coronary heart disease given three monthly subcutaneous doses of MEDI5884 or placebo. The loss of capturable EL after dosing is what the filing calls target engagement.
Procedure: In particular, the amount of hEL bound by MEDI5884 in human plasma was measured using the Meso Scale Diagnostics (MSD) based immunoassay platform. Briefly, wells on a 96-well plate were coated with MEDI5884 and incubated overnight at 4° C. The next day, wells were washed with PBS containing 0.05% Tween20 wash buffer and blocked with I-Block Buffer (Applied Biosystems) for one hour at room temperature. Plates were washed. Then recombinant EL protein standard (Origene Technologies) and human plasma samples were added to corresponding wells and incubated for one hour at room temperature. After washing, a biotinylated EL detection antibody (Origene Technologies) was added to corresponding wells and incubated for one hour at room temperature. Plates were washed, then a streptavidin, sulfo-TAG antibody (MSD) was added to corresponding wells and incubated for one hour at room temperature. After washing, wells were incubated with Read buffer (MSD). Plates were read using the MESO Sector S 600 plate reader, and data was analyzed using the MSD Discovery Workbench software analysis program.

binding result: binds
B1: MEDI5884 (antibody, human IgG4 S228P, kappa, V domains shown)
VH: QVQLVQSGSELKKPGASVKVSCKASGYTFTNYALNWVRQAPGQGLEWMGWINTYSGVGTYAGEFKGRFVFSLDTSVSTAYLQISSLKAEDTAVYYCARRGFYGRRFFDVWGKGTTVTVSS
VL: DIQLTQSPSSLSASVGDRVTITCKASQSVDYDVDSYMHWYQQKPGKAPKLLIYAASNLASGVPSRFSGSGSGTDFTFTISSLQPEDIATYYCQQTIEDPPTFGGGTKVEIKR
notes: Humanized anti-EL antibody, human IgG4P heavy chain and kappa light chain; It was coated on the plate as the capture reagent in the target engagement immunoassay; also called S6F1-4P

Source: patent US20230045712A1 (AstraZeneca / MedImmune, published 2023)
